Assay results published in the Human Domainome abundance scans (Beltran et al. 2025).
± gives the uncertainty stated by the source.

B1: Pyruvate dehydrogenase protein X component, mitochondrial, residues 181 to 227; numbered along this chain, O00330 (parent)
chain: RFRLSPAARNILEKHSLDASQGTATGPRGIFTKEDALKLVQLKQTGK

Variants of: B1
Assay: abundance fitness (aPCA) (normalised: wild type 0, dead -1); higher = more abundant; growth selection in yeast, the domain comes from the species named
Conditions: Homo sapiens

Variant | abundance fitness
S20P | -0.257 ± 0.061
S20A | -0.056 ± 0.045
S20Y | -0.932 ± 0.18
S20W | -0.788 ± 0.075
S20D | 0.087 ± 0.082
S20E | 0.034 ± 0.052
S20R | -0.284 ± 0.047
A8W | -1.15 ± 0.17
A8C | -0.999 ± 0.096
A8Y | -0.902 ± 0.063
A8N | -0.817 ± 0.18
A8L | -1.02 ± 0.077
A8I | -1.07 ± 0.17
E34S | -0.178 ± 0.056
E34I | -0.615 ± 0.29
E34W | -0.334 ± 0.12
E34D | -0.058 ± 0.047
E34F | -0.388 ± 0.1
E34G | -0.323 ± 0.045
T23V | 0.006 ± 0.058
T23S | -0.138 ± 0.044

Variant | abundance fitness
T23E | 0.067 ± 0.055
T23G | -0.326 ± 0.045
T23Q | -0.24 ± 0.087
T23L | -0.258 ± 0.06
T23W | -0.424 ± 0.073
T23Y | -0.309 ± 0.071
T23N | -0.195 ± 0.066
T23D | -0.058 ± 0.079
T23K | -0.062 ± 0.075
T23H | -0.326 ± 0.087
D35K | -0.828 ± 0.14
D35I | -0.956 ± 0.47
D35R | -0.847 ± 0.093
D35L | -0.76 ± 0.12
D35A | -0.637 ± 0.051
D35G | -0.565 ± 0.079
A36I | -0.947 ± 0.078
A36G | -0.513 ± 0.051
A36P | -0.908 ± 0.31
A36L | -0.756 ± 0.093
A36H | -0.562 ± 0.14

Variant | abundance fitness
A36R | -0.723 ± 0.089
L17S | -0.486 ± 0.057
L17V | -0.331 ± 0.053
L17P | -0.07 ± 0.081
L17H | -0.308 ± 0.12
L17T | -0.31 ± 0.092
L17R | -0.856 ± 0.082
L17N | -0.687 ± 0.066
L17Y | -0.691 ± 0.17
L17E | -0.33 ± 0.068
L17D | -0.534 ± 0.14
L17I | -0.22 ± 0.15
K47T | -0.774 ± 0.48
K47C | -0.003 ± 0.25
K47Y | 0.095 ± 0.15
K47N | -0.751 ± 0.36
L4T | -0.204 ± 0.059
L4N | 0.049 ± 0.092
L4E | -0.104 ± 0.046
L4F | -0.284 ± 0.14
L4S | -0.167 ± 0.062

Variant | abundance fitness
L4Y | -0.131 ± 0.077
L4H | -0.758 ± 0.11
L4I | 0.245 ± 0.074
Q44F | -0.328 ± 0.049
Q44S | -0.068 ± 0.082
Q44H | -0.152 ± 0.095
Q44P | -0.516 ± 0.093
Q44M | -0.389 ± 0.12
Q44D | -0.262 ± 0.12
D18T | -0.256 ± 0.054
D18V | -0.625 ± 0.054
D18M | -0.394 ± 0.058
D18A | -0.591 ± 0.11
D18G | -0.598 ± 0.05
D18K | 0.086 ± 0.088
D18W | -1.06 ± 0.14
D18S | -0.393 ± 0.058
A24S | -0.271 ± 0.059
A24T | -0.423 ± 0.051
A24V | -0.476 ± 0.055
